We go through 1 molecule from patent US8877192B2, “Rage fusion proteins and methods of use” (TransTech Pharma, LLC, priority 2004, dated 2014).

For data set [1], the system named is diabetic rat model of restenosis. The data set can be described thus: Diabetic rat model of restenosis (balloon injury of left common carotid artery). In kind it is in vivo, Zucker diabetic rats. Particulars: 4 days after injury; dose-responsive; FIG. 13B. How it is done:
In these experiments, balloon injury of left common carotid artery was performed in Zucker diabetic and nondiabetic rats using standard procedure. […] A maintenance dose was delivered every other day until day 7 after injury (i.e., at day 1, 3, 5 and 7 after injury). The maintenance dose was high=1 mg/animal for one group, or low=0.3 mg/animal for the second group. To measure vascular smooth muscle cell (VSMC) proliferation, animals were sacrificed at 4 days and 21 days after injury. For the measurement of cell proliferation, 4 day animals received intraperitoneal injection of bromodeoxyuridine (BrDdU) 50 mg/kg at 18, 12, and 2 hours before euthanasia. After sacrifice, the entire left and right carotid arteries were harvested. Specimens were stored in Histochoice for at least 24 hours before embedding. […] A fluorescence labeled goat anti-mouse secondary antibody was applied. The number of BrdU-positive nuclei per section were counted by two observers blinded to the treatment regimens.
The remaining rats were sacrificed at 21 days for morphometric analysis. Morphometric analyses were performed by an observer blinded to the study groups, using computerized digital microscopic planimetry software Image-Pro Plus on serial sections, ([…]) carotid arteries stained by Van Gieson staining All data were expressed as mean±SD. […]

A short description of data set [2]: Pharmacokinetic profile of TTP-4000 after IV injection, plasma ELISA. The format is in vivo, monkeys. Particulars: single IV bolus 5 mg/kg, 2 animals, FIG. 11. How it is done: Following collection, the tubes were placed on wet ice (maximum 30 minutes) until centrifugation under refrigeration (at 2 to 8° C.) at 1500×g for 15 minutes. Each harvested plasma sample was then stored frozen (−70° C.±10° C.) until assayed for RAGE polypeptide using an ELISA at various time-points following the injection, as described in Example 6.
Initially, 50 uL of the RAGE specific monoclonal antibody 1HB1011 at a concentration of 10 ug/mL in 1×PBS pH 7.3 is coated on plates via overnight incubation. When ready for use, plates are washed three times with 300 uL of 1× Imidazole-Tween wash buffer and blocked with 1% BSA. […] The samples are allowed to incubate at room temperature for one hour. After incubation, the plates are plates are washed three times. A Goat Anti-human IgG1 1 (Sigma A3312) AP conjugate in 1×PBS with 1% BSA is added and allowed to incubate at room temperature for 1 hour. The plates are washed three times. Color was elucidated with paranitrophenylphosphate.

For data set [3], the system named is transgenic mice expressing the human Swedish mutant amyloid precursor protein (APP). The data set can be described thus: Mouse model of AD (APP transgenic mice). The format is in vivo. How it is done:
Experiments were performed to evaluate whether TTP-4000 could affect amyloid formation and cognitive dysfunction in a mouse model of AD. The experiments utilized transgenic mice expressing the human Swedish mutant amyloid precursor protein (APP) under the control of the PDGF-B chain promoter. Over time, these mice generate high levels of the RAGE ligand, amyloid beta (Aβ).
The APP mice (male) used in this experiment were designed by microinjection of the human APP gene (with the Swedish and London mutations) into mouse eggs under the control of the platelet-derived growth factor B (PDGF-B) chain gene promoter. The mice were generated on a C57BL/6 background and were developed by Molecular Therapeutics Inc. Animals were fed ad libitum and maintained by brother sister mating. The mice generated from this construct develop amyloid deposits starting at 6 months of age. Animals were aged for 6 months and then maintained for 90 days and sacrificed for amyloid quantification.
APP transgenic mice were administered vehicle or TTP4000 every other day [qod (i.p.)] for 90 days starting at 6 months of age. At the end of the experiment, animals were sacrificed and examined for Aβ plaque burden in the brain (i.e., plaque number). A 6-month control APP group was used to determine the baseline of amyloid deposits. In addition, at the end of the study, the animals were subjected to behavioral (Morris water maze) analysis. The investigators were blinded to the study compounds. Samples were given to the mice at 0.25 ml/mouse/every other day.
For histological examination, the animals were anesthetized with an intraperitoneal injection (IP) of sodium pentobarbital (50 mg/kg). The animals were transcardially perfused with 4° C., phosphate-buffered saline (PBS) followed by 4% paraformaldehyde. The brains were removed and placed in 4% paraformaldehyde over night. The brains were processed to paraffin and embedded. Ten serial 30-μm thick sections through the brain were obtained. Sections were subjected to primary antibody overnight at 4° C. (Aβ peptide antibody) in order to detect the amyloid deposits in the brain of the transgenic animals (Guo et al., J. Neurosci., 22:5900-5909 (2002)). Sections were washed in Tris-buffered saline (TBS) and secondary antibody was added and incubated for 1 hour at room temperature. After washing, the sections were incubated as instructed in the Vector ABC Elite kit (Vector Laboratories) and stained with […] (DAB). The reactions were stopped in water and cover-slipped after treatment with xylene. The amyloid area in each section was determined with a computer-assisted image analysis system, consisting of a Power Macintosh computer equipped with a Quick Capture frame grabber card, Hitachi CCD camera mounted on an Olympus microscope and camera stand. NIH Image Analysis Software, v. 1.55 was used. The images were captured and the total area of amyloid was determined over the ten sections. A single operator blinded to treatment status performed all measurements. Summing the amyloid volumes of the sections and dividing by the total number of sections was done to calculate the amyloid volume.
For quantitative analysis, an enzyme-linked immunosorbent assay (ELISA) was used to measure the levels of human total Aβ, Aβtotal and Aβ1-42 in the brains of APP transgenic mice (Biosource International, Camarillo, Calif.). Aβtotal and Aβ1-42 were extracted from mouse brains by guanidine hydrochloride and quantified as described by the manufacturer. […]

B1: TTP-4000: four domain RAGE fusion protein (SEQ ID NO: 32): human RAGE amino acids 1-251 linked to CH2 and CH3 domains of human IgG (protein)
chain: MAAGTAVGAWALVLSLWGAVVGAQNITARIGEPLVLKCKGAPKKPPQRLEWKLNTGRTEAWKVLSPQGGGPWDSVARVLPNGSLFLPAVGIQDEGIFRCQAMNRNGKETKSNYRVRVYQIPGKPEIVDSASELTAGVPNKVGTCVSEGSYPAGTLSWHLDGKPLVPNEKGVSVKEQTRRHPETGLFTLQSELMVTPARGGDPRPTFSCSFSPGLPRHRALRTAPIQPRVWEPVPLEEVQLVVEPEGGAVAPPSVFLFPPKPKDTLMISRTPEVTCVVVDVSHEDPEVKFNWYVDGVEVHNAKTKPREEQYNSTYRVVSVLTVLHQDWLNGKEYKCKVSNKALPAPIEKTISKAKGQPREPQVYTLPPSRDELTKNQVSLTCLVKGFYPSDIAVEWESNGQPENNYKTTPPVLDSDGSFFLYSKLTVDKSRWQQGNVFSCSVMHEALHNHYTQKSLSLSPGK
As to B1, the “vascular smooth muscle cell proliferation (BrdU-positive nuclei)” value in data set [1] is given as “significantly reduced”. Also, the terminal half-life entry in data set [2] is given as “greater than 300 hours”. Further, the “inflammatory cytokines IL-1 and TNF-α” value in data set [3] (data not shown) is “reduce”. Besides, the “Aβ plaques in the brain” value in data set [3] (treated for 3 months, versus vehicle and human IgG1, FIG. 14A) was “fewer Aβ plaques”. Besides, the “cognitive dysfunction (Morris water maze)” value in data set [3] (treated for 3 months, versus vehicle and human IgG1, FIG. 14B) was “less cognitive dysfunction”.
